Assay [1] addresses FITC (fluorescein isothiocyanate)-labeled RAR (RARΔAB, His-tag). The assay can be described thus: fluorescence polarisation; fluorescence anisotropy; FEZ1 (1 nM to 5000 nM) titrated into 50 nM FITC-labeled RAR; 20 mM Tris pH 8.0, 50 mM NaCl, 2 mM EDTA; 10 °C; absence of all-trans retinoic acid. (In general: Fluorescence polarisation rises when a labelled molecule tumbles more slowly, as on binding a larger partner.)

The target is the same in assay [2]. The assay can be described thus: fluorescence polarisation; fluorescence anisotropy; FEZ1 (1 nM to 5000 nM) titrated into 50 nM FITC-labeled RAR; 20 mM Tris pH 8.0, 50 mM NaCl, 2 mM EDTA; 10 °C; presence of all-trans retinoic acid (AT).

These results are taken from paper PMC5757173.

B1: Fasciculation and elongation zeta-1 (1-392) protein fused to an N-terminal 6xHis-tag (natural protein)
chain: MEAPLVSLDEEFEDLRPSCSEDPEEKPQCFYGSSPHHLEDPSLSELENFSSEIISFKSMEDLVNEFDEKLNVCFRNYNAKTENLAPVKNQLQIQEEEETLQDEEVWDALTDNYIPSLSEDWRDPNIEALNGNCSDTEIHEKEEEEFNEKSENDSGINEEPLLTADQVIEEIEEMMQNSPDPEEEEEVLEEEDGGETSSQADSVLLQEMQALTQTFNNNWSYEGLRHMSGSELTELLDQVEGAIRDFSEELVQQLARRDELEFEKEVKNSFITVLIEVQNKQKEQRELMKKRRKEKGLSLQSSRIEKGNQMPLKRFSMEGISNILQSGIRQTFGSSGTDKQYLNTVIPYEKKASPPSVEDLQMLTNILFAMKEDNEKVPTLLTDYILKVLCPT
The Kd is the free concentration of one partner at which half of the binding sites on the other are occupied at equilibrium, for simple one-to-one binding. For B1, the Kd in assay [1] amounted to 3.4 µM; in assay [2], 3.8 µM.
